From the supplement of paper PMC9170038

Test system: K4 kissing-loop RNA reporter
Test: apparent KD of K4 kissing-loop reporter; higher = weaker reporter binding
Conditions: Eterna round: R107
Method: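 RNA-MaP round R107: designed RNA switches with theophylline, tryptophan, arginine or FMN aptamers are transcribed on-chip within common flanks. They are titrated with a labelled K4 kissing-loop RNA reporter in RNA-MaP buffer (100 mM Tris pH 7.5, 80 mM KCl, 4 mM MgCl2), without ligand or with the indicated ligand. Median apparent KD per design.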

[1] = input ligand: theophylline 20 uM
[2] = input ligand: tryptophan 2.4 mM
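Note: bound reporter read as fluorescence of individual clusters on recovered sequencing chips by microscopy, with normalized cluster intensities fitted with a binding model.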

| Sequence | apparent KD of K4 kissing-loop reporter (input ligand: FMN 200 uM) [nM] | apparent KD of K4 kissing-loop reporter (input ligand: arginine 13.2 mM) [nM] | apparent KD of K4 kissing-loop reporter (input ligand: none) [nM] | apparent KD of K4 kissing-loop reporter [1] [nM] | apparent KD of K4 kissing-loop reporter [2] [nM] |
| --- | --- | --- | --- | --- | --- |
| CGCAAGCAGCCAGUGAUGUUGGCCGCCUUGCGAGGACCGGUACGGCCGCCACUCGAAGGCGGCUACUGGUAAACCGCCUAACGGA [Onzaenla] | 93.3 | 83.6 | 92.9 | 85.4 | 96.4 |
| UGACUGGACUGAAGGAGCGAGCGAGACAAAGUCUCGGAAAUUCAGUGAUGUUGAUAUAUAACUCAGGUAGGUCGCAGUCUAGUCU [ArgBS 6 #SwitchBubble #StaticStem] | 350 | 411 | 459 | 363 | 335 |
| AGGUCACAACUACAGUGAUGUUGUGGAGAGCAGGAUAUGCAGAAAUGCAGAAGGGCUCGCUCUCUAGUGACCGAUCAAAAGAUCA [Omei KL FMN A SS A v9] | 1360 | 311 | 669 | 545 | 532 |
| UGUACCGAGGCAGGAUAUGUCGUCGAAAGACGAAAUGGAGUGAUGUUCCUUAAACUGCGAAAGCAGACAGAAGGGUCUUGGUACU [FmnBS 29 G10+U76] | 132 | 178 | 181 | 167 | 171 |
| CGCGCGCGUUUGAGAGGGCGCGCGCGAAGUGAGGAUAUUUAGGGAGAAAGAAGGCACUAUAAAAUAUAGUGAUGUUAUAUAAGGG [SSFMNA.F] | 603 | 111 | 288 | 469 | 186 |
| AACGCUGGUGAAUAACACUAGCGAAAAUUCCGAGGACCGGUACGGCCGCCACUCGGCUAACUGCGAGUGAUGUUCGAUAAUAAAA [Mat - Mod of OpenEnded 3 - D9] | 80.3 | 183 | 109 | 189 | 60.2 |
| AAUCGCAGUGAUGUUGCGAUUCCGUUGAGGGAGGAUAUUGGUAAUACAAGAAGGUUCGGUUACGGGAGAUGUUAGUAAUAGGGCC [Exclusion FMN A GF21] | 46.2 | 41.3 | 61.8 |  | 85.2 |
| AUGGUUGUCGUAGGAUAUGUAGGAUAUUCCUAUAGCAGUGAUGUUGCUAAUAUCUUGGAAAGAAGGACAGAAGGACGAUAACCAC [KL-SSFMN-B2 #analogue] | 114 | 112 | 119 | 108 | 111 |
| CCGCUACCCUCAGGAUAUUAAAUAUUAGUGAUGUUAGUAAACCGAUGGCGAAAGCCAUCGGUAUGUUGAGAAGGGAGGGUAGCGG [whbob_SS_FMNB__2th197] | 403 | 1810 | 2240 | 891 | 880 |
| GCAGUGAUGUUGCGCGGGUACAGUGGAGUGCGAGGACCGGUACGGCCGCCACUCGUACAGAACUGGCUAAUAUAUGGAUAGGUGA [VII] | 271 | 169 | 305 | 169 | 210 |
| CACCGCAACUGAAGGAGCGCGCCAGUGAUGUUGGACGGCUUUGUCAAGGAAACUGCACCGGUGCAGGUAGGUCGCAGUUCGCGGC [Ededisa] | 319 | 256 | 366 | 278 | 259 |
| AAAACGCUGUGAAUAACACAGCGAAAUUCGCGAGGACCGGUACGGCCGCCACUCGCUAACUGCGAGUGAUGUUCGAUAAUAAAAU [Mat - Mod of OpenEnded 3 - D3] | 166 | 90.3 | 170 | 161 | 104 |
| CCCUCACGAGUGAUGUUCGUAGGGUACAGUCAGGAUAUCAUGCGGUUGAGAAGGGACAGAGAAGGCGGCCACGGGUUGCUUAUCU [Ussoat] | 215 | 258 | 342 | 388 | 308 |
| GCUAUGGUAGGAAGGAGCGCUUAAUUACUAAUAAGAGUGAUGUUCGAUAGUAGGUAUUUAUAGCAGGUAGGUCGCCUACUAUAGC [KL-Arg B23] | 200 | 171 | 176 | 244 | 174 |
| UUUAUAAGGUCGGCCGCCACUGGAUUUAUGUUUGUUUCGUCUGGAUCAAAGUGAUGUUUUGAGUCCAGGACCGGGACAUUUGUUA [whbob_Ex_Tryp_B_w39] | 86.6 | 76.5 | 79.3 | 75.6 | 90.5 |
| CUGUUUUAGUCGGCCGCCACUGCAAGUGAUGUUUGGAGUAUUAUGCCGUUUCUGUCCAUUGAACCCAGGACCGGGACCGGAUCGU [theeternabot_exclusion_KL_Trp_B_8] | 212 | 167 | 206 | 186 | 189 |
| GGUAGCAUGGCGGCCGCCACUAGAUCAGUGAUGUUGAUCCCGCCGUCUUACGGCGAGUCAGAGGCUAGGACCGGGCCAUGCUACC | 601 | 318 | 490 | 590 | 963 |
| AAGGUCACUACUACAGUGAUGUUGUAGGAGCAGGAUAUGCAGAAAUGCAGAAGGGCUCGCUCCAGGUGACCGAAUGAAACAUUCA [Omei KL FMN A SS A v3] | 333 | 504 | 573 | 475 | 501 |
| GCCGUAGAUUGAAGGAGCGAGUAGGCUCACUUGCGAAGUGAAUAGCAGAGUGAUGUUCUGUCUCAGGUAGGUCGCAAUCUACGGC | 701 | 172 | 388 | 436 | 397 |
| AGGUAGUCCCUUGUUGUCAUCGAAGAUGAACGAGGACCGGUACGGCCGCCACUCGGAGUGAUGUUCCGAUGGCUGCAAAAUAAAA [MatMod 23 - Jieux - Exclusion - Tryptophan A] | 108 | 89 | 97.2 | 85.9 | 103 |
| AUGUUGAGCGGAAGGAGCGGCUGAGCCAGUGAUGUUGGUUAAUCCAAGUGAUGUUGGAAAAGCCAGGUAGGUCGCCGUUUUACGU [whbob_SS_Arginine_B_2t145] | 1010 | 597 | 1190 | 807 | 887 |
| GGAUCCACCAGUGAUGUUGGAGAAAACUCUAAGGAUAUGACGAAAGUCAGAAGGUAGUAGACUGGACAAAGUCCGGUCGGAUCCA [FmnA 23 U30+A56] | 583 | 376 | 1190 | 661 | 484 |
